Patent US20090214535A1 (Chugai, published 2009)
Substitutions are numbered along the chain they refer to. Read-outs that look alike come from different tables or passages of the source. Values belong to the binder of their own block, whether it stands above or below them.

How the values were obtained:
Assay in all cases: cell-based or functional assay
[1] = biological target: T1, human Mpl (on BaF3-human Mpl cells) (human, UniProt P40238 26-635)
T1 sequence (looked up): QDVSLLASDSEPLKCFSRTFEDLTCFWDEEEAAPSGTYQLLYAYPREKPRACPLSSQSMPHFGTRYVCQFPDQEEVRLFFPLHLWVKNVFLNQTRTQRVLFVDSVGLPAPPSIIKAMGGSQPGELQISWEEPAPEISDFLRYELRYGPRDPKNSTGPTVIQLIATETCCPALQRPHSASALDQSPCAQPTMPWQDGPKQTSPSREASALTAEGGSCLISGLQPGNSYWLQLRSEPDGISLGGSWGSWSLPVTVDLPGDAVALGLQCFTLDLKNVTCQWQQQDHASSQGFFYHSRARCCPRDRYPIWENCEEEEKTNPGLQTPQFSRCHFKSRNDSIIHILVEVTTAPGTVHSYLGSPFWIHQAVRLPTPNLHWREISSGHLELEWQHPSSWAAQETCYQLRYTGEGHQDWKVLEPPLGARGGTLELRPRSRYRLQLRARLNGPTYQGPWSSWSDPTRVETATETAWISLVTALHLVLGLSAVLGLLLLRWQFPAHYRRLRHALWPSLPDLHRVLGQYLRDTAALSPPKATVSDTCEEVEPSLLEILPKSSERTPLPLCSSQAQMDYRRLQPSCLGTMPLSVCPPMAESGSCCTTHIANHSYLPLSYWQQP

[2] = biological target: monkey Mpl (on BaF3-monkey Mpl cells) (monkey)
[3] = biological target: T1, human Mpl (on BaF3-human Mpl cells); remark: listed apart in the source
[4] = biological target: monkey Mpl (on BaF3-monkey Mpl cells) (monkey); remark: listed apart in the source
[5] = biological target: T1, human Mpl (on BaF3-human Mpl cells); remark: listed apart in the source
[6] = biological target: monkey Mpl (on BaF3-monkey Mpl cells) (monkey); remark: listed apart in the source
[7] = biological target: Mpl on the BaF3 cells of FIG. 42 (human or monkey not stated)

B2: hVB22B u2-wz4 sc(Fv)2 peak 2 (single chain diabody-type conformational isomer) (scFv)
chain: QVQLVQSGPEVKKPGASVKVSCKASGYTFTNSWMNWVRQRPGKGLEWIGRIYPGDGETIYNGKFRVRVTITADESTSTAYMQLSSLRSEDTAVYYCARGYDDYSFAYWGQGTTVTVSSGGGGSGGGGSGGGGSDIVMTQSPLSLPVTPGEPASISCRSSKSLLHSNGNTYLYWFLQKPGQSPQLLIYRMSNLASGVPDRFSGSGSGTDFTLKISRVEAEDVGVYYCMQHIEYPFTFGQGTKLEIKGGGGSGGGGSGGGGSQVQLVQSGPEVKKPGASVKVSCKASGYTFTNSWMNWVRQRPGKGLEWIGRIYPGDGETIYNGKFRVRVTITADESTSTAYMQLSSLRSEDTAVYYCARGYDDYSFAYWGQGTTVTVSSGGGGSGGGGSGGGGSDIVMTQSPLSLPVTPGEPASISCRSSKSLLHSNGNTYLYWFLQKPGQSPQLLIYRMSNLASGVPDRFSGSGSGTDFTLKISRVEAEDVGVYYCMQHIEYPFTFGQGTKLEIK
- EC50 (read off the curve) [A) BaF-human Mpl] [1]: ~40 pM
- EC50 (read off the curve) [B) BaF-monkey Mpl] [2]: ~30 pM
- EC50 (read off the curve) [A) BaF-human Mpl] [3]: ~50 pM
- EC50 (read off the curve) [B) BaF-monkey Mpl] [4]: ~20 pM

B3: hVB22B u2-wz4 (v3) sc(Fv)2 (scFv)
chain: B2 chain with Q39E, Q176K, Q299K, Q436E
- EC50 (read off the curve) [A) BaF-human Mpl] [3]: ~100 pM

B5: VB22B sc(Fv)2 peak 2 (single chain diabody-type conformational isomer) (scFv)
chain: QVQLQQSGPELVKPGASVKISCKASGYAFTNSWMNWVKQRPGKGLEWIGRIYPGDGETIYNGKFRVKATLTADKSSSTAYMDISSLTSEDSAVYFCARGYDDYSFAYWGQGTLVTVSAGGGGSGGGGSGGGGSDIVMTQAAPSIPVTPGESVSISCRSSKSLLHSNGNTYLYWFLQRPGQSPQLLIYRMSNLASGVPDRFSGSGSGTAFTLRISRVEAEDVGVYYCMQHIEYPFTFGSGTKLEIKGGGGSGGGGSGGGGSQVQLQQSGPELVKPGASVKISCKASGYAFTNSWMNWVKQRPGKGLEWIGRIYPGDGETIYNGKFRVKATLTADKSSSTAYMDISSLTSEDSAVYFCARGYDDYSFAYWGQGTLVTVSAGGGGSGGGGSGGGGSDIVMTQAAPSIPVTPGESVSISCRSSKSLLHSNGNTYLYWFLQRPGQSPQLLIYRMSNLASGVPDRFSGSGSGTAFTLRISRVEAEDVGVYYCMQHIEYPFTFGSGTKLEIK
- EC50 (read off the curve) [A) BaF-human Mpl] [5]: ~8 pM
- EC50 (read off the curve) [B) BaF-monkey Mpl] [6]: ~20 pM
- EC50 (read off the curve) [7]: ~0.6 ng/mL

Next, values leading:

- EC50 (read off the curve) [A) BaF-human Mpl] [1]: ~40 pM
- EC50 (read off the curve) [B) BaF-monkey Mpl] [2]: ~40 pM
- EC50 (read off the curve) [A) BaF-human Mpl] [3]: ~60 pM
- EC50 (read off the curve) [B) BaF-monkey Mpl] [4]: ~20 pM
B1: humanized anti-human Mpl antibody hVB22B u2-wz4 sc(Fv)2 (bulk, before separation of the conformational isomers) (scFv)
chain: B2 chain

- EC50 (read off the curve) [A) BaF-human Mpl] [3]: ~40 pM
- EC50 (read off the curve) [B) BaF-monkey Mpl] [4]: ~40 pM
B4: hVB22B u2-wz4 (v1) sc(Fv)2 (scFv)
chain: B2 chain with Q39E, Q176E, Q299K, Q436K

- EC50 (read off the curve) [A) BaF-human Mpl] [5]: ~10 pM
- EC50 (read off the curve) [B) BaF-monkey Mpl] [6]: ~30 pM
B6: mouse anti-human Mpl antibody mVB22B sc(Fv)2 (before separation of the conformational isomers) (scFv)
chain: B5 chain
